Data: paper doi:10.64898/2025.12.12.693941 (bioRxiv, 2025)
Where a chain is given by its changes, count along the chain named. Names may count otherwise.

B1: M. tuberculosis Ku R262A (natural protein)
chain: MRAIWTGSIAFGLVNVPVKVYSATADHDIRFHQVHAKDNGRIRYKRVCEACGEVVDYRDLARAYESGDGQMVAITDDDIASLPEERSREIEVLEFVPAADVDPMMFDRSYFLEPDSKSSKSYVLLAKTLAETDRMAIVHFTLRNKTRLAALRVKDFGKREVMMVHTLLWPDEIRDPDFPVLDQKVEIKPAELKMAGQVVDSMADDFNPDRYHDTYQEQLQELIDTKLEGGQAFTAEDQPRLLDEPEDVSDLLAKLEASVKAASKANSNVPTPP
B2: M. tuberculosis Ku, wild type, His-tagged and RED-tris-NTA labelled (MST ligand) (natural protein)
chain: B1 chain with A262R
B3: M. tuberculosis Ku, wild type, His-tag removed by TEV (MST analyte) (natural protein)
chain: B1 chain with A262R
B4: M. tuberculosis Ku K260A (natural protein)
chain: B1 chain with K260A, A262R
B5: M. tuberculosis Ku V248A (natural protein)
chain: B1 chain with V248A, A262R
B6: M. tuberculosis Ku E246A (natural protein)
chain: B1 chain with E246A, A262R
B7: M. tuberculosis Ku S258A (natural protein)
chain: B1 chain with S258A, A262R
B8: M. tuberculosis Ku N266A (natural protein)
chain: B1 chain with A262R, N266A
B9: M. tuberculosis Ku E256A (natural protein)
chain: B1 chain with E256A, A262R
B10: M. tuberculosis Ku S263A (natural protein)
chain: B1 chain with A262R, S263A

Tests used:
[1] = biological target: the molecule itself; assay: SEC-MALS
[2] = biological target: M. tuberculosis LigD, wild type, His-tag removed by TEV (MST analyte) (M. tuberculosis, UniProt P9WNV3 1-759); assay: MST
[3] = biological target: M. tuberculosis LigD L580E (M. tuberculosis, UniProt P9WNV3 1-759, L580E); assay: MST
[4] = biological target: M. tuberculosis LigD V194D (M. tuberculosis, UniProt P9WNV3 1-759, V194D); assay: MST
[5] = biological target: M. tuberculosis LigD R198E (M. tuberculosis, UniProt P9WNV3 1-759, R198E); assay: MST
[6] = biological target: M. tuberculosis LigD D162R (M. tuberculosis, UniProt P9WNV3 1-759, D162R); assay: MST
[7] = biological target: M. tuberculosis LigD K579E (M. tuberculosis, UniProt P9WNV3 1-759, K579E); assay: MST

Binder	stoichiometry N [1]	binding result [2]	other results
B1	2	binds	
B2			Kd [2]: 850 nM
B3			Kd [3]: 1270 nM; binding result [4]: binds; binding result [5]: binds; binding result [6]: binds; Kd [7]: 510 nM
B4	2	binds	
B5	2	binds	
B6	2	binds	
B7	2	binds	
B8	2		
B9	2	binds	
B10	2	binds	
